In patent US20260001953A1 (TWIST BIOSCIENCE, published 2026):
Residue numbers refer to the chain shown, from its start.

T1: mouse CD117 (mouse, UniProt P05532)
T1 construct: antigen of the Carterra SPR kinetics; also called murine CD117
T1 sequence (receptor, looked up): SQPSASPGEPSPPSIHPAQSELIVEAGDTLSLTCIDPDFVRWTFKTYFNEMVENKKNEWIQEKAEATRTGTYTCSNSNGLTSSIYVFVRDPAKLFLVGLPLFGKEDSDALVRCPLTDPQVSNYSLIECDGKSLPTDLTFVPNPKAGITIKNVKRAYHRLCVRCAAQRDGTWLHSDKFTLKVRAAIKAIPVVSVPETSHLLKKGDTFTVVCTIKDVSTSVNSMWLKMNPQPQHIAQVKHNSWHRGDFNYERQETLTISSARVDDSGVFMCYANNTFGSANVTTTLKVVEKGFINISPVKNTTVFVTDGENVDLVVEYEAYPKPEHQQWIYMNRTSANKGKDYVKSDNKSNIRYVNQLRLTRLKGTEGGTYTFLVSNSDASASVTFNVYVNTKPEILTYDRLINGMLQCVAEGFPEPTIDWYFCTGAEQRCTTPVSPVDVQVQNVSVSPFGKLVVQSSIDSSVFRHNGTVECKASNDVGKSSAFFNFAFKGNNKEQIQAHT

B1: CD117-10 (antibody, human IgG1, kappa, V domains shown)
VH: EVQLLESGGGLVQPGGSLRLSCAASGFIFSSYAMTWVRQAPGKGLEWVSSISGRGGNTYYADSVKGRFTISRDNSKNTLYLQMNSLRAEDTAVYYCAKMMDDFYDAFNMWGQGTLVTVSS
VL: DIQMTQSPSSLSASVGDRVTITCRASQSIRTYLNWYQQKPGKAPKLLIYDASSLESGVPSRFSGSGSGTDFTLTISSLQPEDFATYYCQQSFTTPYTFGGGTKVEIKR
notes: detected with anti-human IgG in FACS
B2: CD117-12 (antibody, human IgG1, kappa, V domains shown)
VH: EVQLLESGGGLVQPGGSLRLSCAASGITFSSYAMTWVRQAPGKGLEWVSAISSSGTGTYYADSVKGRFTISRDNSKNTLYLQMNSLRAEDTAVYYCARERAPKDFGSSGYSFDYWGQGTLVTVSS
VL: B1 VL with R30D, T31I, D50K, E55Q, F92Y, T94V, Y96I
notes: as for B1
B3: CD117-11 (antibody, human IgG1, kappa, V domains shown)
VH: EVQLLESGGGLVQPGGSLRLSCAASGFTFGNFAMSWVRQAPGKGLEWVSLISGSGGNTYYADSVKGRFTISRDNSKNTLYLQMNSLRAEDTAVYYCARGDGVNGFDYWGQGTLVTVSS
VL: B1 VL with R30P, D50A, A51T, S53T, S91T, F92Y, T93S
notes: as for B1
B4: CD117-20 (antibody, human IgG1, kappa, V domains shown)
VH: EVQLLESGGGLVQPGGSLRLSCAASGFTFSSDAMNWVRQAPGKGLEWVSGISGSGGYTYYADSVKGRFTISRDNSKNTLYLQMNSLRAEDTAVYYCARSGNVVGDGMDVWGQGTLVTVSS
VL: B1 VL with S28N, T31R, S53T, F92H, Y96L
notes: as for B1
B5: CD117-18 (antibody, human IgG1, kappa, V domains shown)
VH: EVQLLESGGGLVQPGGSLRLSCAASGFTFSDYSMNWVRQAPGKGLEWVSAITGSGGNTFYADSVKGRFTISRDNSKNTLYLQMNSLRAEDTAVYYCARSNYEQDVFDIWGQGTLVTVSS
VL: B1 VL with S28T, R30Y, T31R, S53D, E55Q, F92Y, T93S, T94I, Y96I
notes: as for B1
B6: CD117-19 (antibody, human IgG1, kappa, V domains shown)
VH: EVQLLESGGGLVQPGGSLRLSCAASGFSFSSYAMSWVRQAPGKGLEWVSAISGTGGNTYYADSVKGRFTISRDNSKNTLYLQMNSLRAEDTAVYYCARRNDFWSDAFDIWGQGTLVTVSS
VL: B1 VL with S28N, R30Y, E55H, F92Y, T93S, T94S, P95S, Y96I
notes: as for B1
B7: CD117-17 (antibody, human IgG1, kappa, V domains shown)
VH: EVQLLESGGGLVQPGGSLRLSCAASGFTFSDYPMSWVRQAPGKGLEWVSAIGGSGGDTYYADSVKGRFTISRDNSKNTLYLQMNSLRAEDTAVYYCARGAYDGEGFDYWGQGTLVTVSS
VL: B1 VL with S28T, R30S, T31G, S53T, E55Q, S56R, S91N, F92Y, T93R, Y96F
notes: as for B1

Molecular target: T2, Cluster of differentiation 117 (CD117), antigen of epitope binning and ELISA (UniProt P10721 26-520, limits assumed)
T2 construct: also called tyrosine-protein kinase KIT; mast/stem cell growth factor receptor (SCFR)
T2 sequence (P10721 26-520 limits assumed): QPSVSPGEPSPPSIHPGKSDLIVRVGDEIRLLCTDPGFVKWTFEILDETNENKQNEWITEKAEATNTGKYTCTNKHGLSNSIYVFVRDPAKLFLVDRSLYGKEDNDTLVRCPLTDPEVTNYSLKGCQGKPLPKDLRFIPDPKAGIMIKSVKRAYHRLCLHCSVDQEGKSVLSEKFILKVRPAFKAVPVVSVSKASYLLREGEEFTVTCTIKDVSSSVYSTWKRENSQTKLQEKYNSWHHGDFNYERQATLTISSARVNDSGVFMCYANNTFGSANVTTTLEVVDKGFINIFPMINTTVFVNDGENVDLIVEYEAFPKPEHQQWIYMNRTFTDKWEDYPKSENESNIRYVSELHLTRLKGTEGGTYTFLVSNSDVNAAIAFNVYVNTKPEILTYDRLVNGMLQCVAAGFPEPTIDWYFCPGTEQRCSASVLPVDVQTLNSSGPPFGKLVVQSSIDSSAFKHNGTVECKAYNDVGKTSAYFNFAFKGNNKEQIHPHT
Test: Carterra SPR, human CD117
Protocol: (§1) To further evaluate the antibodies discovered during the screens, 21 clones were selected for detailed characterization and were analyzed for target binding kinetics by a Carterra SPR instrument. The binding kinetics of the anti-CD117 antibodies for human CD117, cynomolgus monkey CD117, and murine CD117 are shown in FIG. 29A-29B.

binding result	Kd	koff	kon	Binder
no binding	–	–	–	B1
–	187 nM	0.101 s⁻¹	541000 M⁻¹ s⁻¹	B2
–	270 nM	0.0679 s⁻¹	252000 M⁻¹ s⁻¹	B3
no binding	–	–	–	B4
–	2.53 nM	0.00336 s⁻¹	1.33e+06 M⁻¹ s⁻¹	B5
–	5.87 nM	0.00388 s⁻¹	662000 M⁻¹ s⁻¹	B6
–	3 nM	0.00406 s⁻¹	1.35e+06 M⁻¹ s⁻¹	B7

Molecular target: T3, cyno CD117 (Macaca fascicularis, UniProt A0A7N9CP24)
T3 construct: antigen of the Carterra SPR kinetics; also called cynomolgus monkey CD117
T3 sequence (A0A7N9CP24 entry or part of it): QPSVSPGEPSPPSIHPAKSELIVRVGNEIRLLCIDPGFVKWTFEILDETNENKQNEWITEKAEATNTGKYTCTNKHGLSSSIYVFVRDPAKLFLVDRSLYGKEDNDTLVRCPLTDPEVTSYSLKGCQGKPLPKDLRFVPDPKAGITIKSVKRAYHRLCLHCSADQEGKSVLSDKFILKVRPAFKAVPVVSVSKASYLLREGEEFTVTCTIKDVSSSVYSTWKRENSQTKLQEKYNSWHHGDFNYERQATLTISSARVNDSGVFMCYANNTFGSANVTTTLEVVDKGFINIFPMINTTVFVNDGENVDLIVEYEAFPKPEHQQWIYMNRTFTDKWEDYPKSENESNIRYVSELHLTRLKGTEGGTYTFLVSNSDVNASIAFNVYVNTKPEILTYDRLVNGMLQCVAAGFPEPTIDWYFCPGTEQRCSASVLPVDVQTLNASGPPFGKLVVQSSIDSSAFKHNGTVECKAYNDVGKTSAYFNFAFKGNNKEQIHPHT
Test: Carterra SPR, cyno CD117
Protocol: as §1

Kd	koff	kon	Binder
26600 nM	0.916 s⁻¹	34400 M⁻¹ s⁻¹	B1
5190 nM	0.201 s⁻¹	38700 M⁻¹ s⁻¹	B2
338 nM	0.0681 s⁻¹	201000 M⁻¹ s⁻¹	B3
4120 nM	0.298 s⁻¹	72200 M⁻¹ s⁻¹	B4
5.02 nM	0.00679 s⁻¹	1.35e+06 M⁻¹ s⁻¹	B5
20.8 nM	0.0272 s⁻¹	1.31e+06 M⁻¹ s⁻¹	B6
92.6 nM	0.0673 s⁻¹	727000 M⁻¹ s⁻¹	B7

Molecular target: T4, CD117 transiently expressed on Expi293 cells (UniProt P10721 26-976, limits assumed)
T4 construct: whole, on cells; Two cassettes are described (P2A mVenus and direct mVenus fusion); also called CD117 transient cells; the transient cell line
T4 sequence (P10721 26-976 limits assumed): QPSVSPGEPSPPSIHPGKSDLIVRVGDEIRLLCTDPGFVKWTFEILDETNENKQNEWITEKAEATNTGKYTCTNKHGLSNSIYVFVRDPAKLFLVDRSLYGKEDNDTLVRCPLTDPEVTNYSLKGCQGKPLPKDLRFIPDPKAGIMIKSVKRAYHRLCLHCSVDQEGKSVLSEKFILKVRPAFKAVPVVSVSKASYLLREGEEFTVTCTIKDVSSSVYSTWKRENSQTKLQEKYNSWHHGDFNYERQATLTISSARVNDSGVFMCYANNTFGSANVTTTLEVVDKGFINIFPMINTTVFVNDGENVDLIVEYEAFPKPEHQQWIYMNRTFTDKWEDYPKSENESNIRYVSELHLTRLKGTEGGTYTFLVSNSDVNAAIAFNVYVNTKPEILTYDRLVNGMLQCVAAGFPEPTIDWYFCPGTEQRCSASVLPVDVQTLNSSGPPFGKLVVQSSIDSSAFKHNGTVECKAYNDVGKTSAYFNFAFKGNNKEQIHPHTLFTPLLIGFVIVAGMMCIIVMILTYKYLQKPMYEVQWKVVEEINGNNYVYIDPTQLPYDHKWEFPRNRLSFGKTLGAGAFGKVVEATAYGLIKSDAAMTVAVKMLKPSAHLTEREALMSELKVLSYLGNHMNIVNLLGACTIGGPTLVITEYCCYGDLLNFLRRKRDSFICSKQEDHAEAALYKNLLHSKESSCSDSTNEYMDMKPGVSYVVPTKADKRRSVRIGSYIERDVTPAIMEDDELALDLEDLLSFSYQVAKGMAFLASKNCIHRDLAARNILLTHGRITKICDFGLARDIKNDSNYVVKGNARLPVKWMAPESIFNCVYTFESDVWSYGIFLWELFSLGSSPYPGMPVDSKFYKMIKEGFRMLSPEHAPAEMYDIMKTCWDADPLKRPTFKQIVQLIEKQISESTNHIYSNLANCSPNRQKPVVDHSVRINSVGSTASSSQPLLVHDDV
Test: FACS cell binding, Expi293 transiently expressing CD117
Protocol: (§2) The transient expression of CD117 was validated with a control antibody, Expi293 (FIGS. 17A-17B). Expi293, […], was transiently transfected with CD117 48-hours post-transfection. The secondary antibody used was APC Goat anti-human IgG (diluted 1:400). 100,000 cells per well were blocked with 1×PBS+0.5% BSA for 1 hour, stained with 100 μL of the primary antibody for 1 hour, and stained with the secondary antibody for one hour, all with 3× washes in between each staining.

EC50	Binder
91.3 nM	B1
1210 nM	B2
4.31 nM	B3
6.24 nM	B4
20 nM	B5
3.29 nM	B6
7.58 nM	B7

Molecular target: T4, CD117 transiently expressed on Expi293 …
Test: FACS, MFI expressing / parental cells
Protocol: as §2

MFI Ratio	Binder
21.2	B1
10.6	B2
17.2	B3
14.4	B4
16.2	B5
12.9	B6
20.1	B7

Molecular target: T1, mouse CD117
Test: Carterra SPR, mouse CD117
Protocol: as §1

binding result	Binder
no binding	B1
no binding	B2
no binding	B3
no binding	B4
no binding	B5
no binding	B6
no binding	B7
